The results in this text go back to PMC6436931, “Activation of the Endonuclease that Defines mRNA 3′ Ends Requires Incorporation into an 8-Subunit Core Cleavage and Polyadenylation Factor Complex” (Molecular Cell, 2019).

The target of data set [1] is Cft1;Pfs2;Yth1;Fip1;Pap1;Cft2 (Saccharomyces cerevisiae;Saccharomyces …, UniProt Q06632;P42841;Q06102;P45976;P29468;Q12102 1-1357;1-465;1-208;1-327;1-568;1-859, |||||). The experiment in a line: EMSA; CPFpol + Cft2; EMSA: 50 nM RNA, 0.25-4.0 uM protein, protein diluted in 10 mM HEPES pH 7.9, 150 mM NaCl, 0.5 mM Mg(OAc)2, plus 1x loading dye (orange G, glycerol, EDTA); 30 min on ice; native 6% acrylamide/TBE PAGE. Particulars: protein: recombinant;recombinant;recombinant;recombinant;recombinant;recombinant, tags: ;3C-SII;3C-8H, untagged in CPFpol+Cft2;;SII (Pap1-SII) when alone, untagged in CPFpol and CPFcore;SII (Cft2-SII) when alone, copies: 1;2;1;1;1;1, label: 5'-FAM. Background: Mobility shift assays separate free from complexed probe on a gel.

The target of data set [2] is Cft1;Pfs2;Yth1;Fip1;Pap1;Cft2;Ysh1;Mpe1 (Saccharomyces cerevisiae;Saccharomyces …, UniProt Q06632;P42841;Q06102;P45976;P29468;Q12102;Q06224;P35728 …, |||||||). The experiment in a line: EMSA; CPFcore; EMSA: 50 nM RNA, 0.25-4.0 uM protein, protein diluted in 10 mM HEPES pH 7.9, 150 mM NaCl, 0.5 mM Mg(OAc)2, plus 1x loading dye (orange G, glycerol, EDTA); 30 min on ice; native 6% acrylamide/TBE PAGE. The conditions noted are these: tags: ;3C-SII;3C-8H, untagged in CPFpol+Cft2;;SII (Pap1-SII) when alone, untagged in CPFpol and CPFcore;SII (Cft2-SII) when alone, untagged in CPFpol+Cft2 and CPFcore;;3C-SII (C-terminal) in Ysh1-Mpe1 complexes, copies: 1;2;1;1;1;1;1;1, label: 5'-FAM.

Another data set addresses Pcf11;Clp1 (Saccharomyces cerevisiae;Saccharomyces …, UniProt P39081;Q08685 1-626;1-445, |). The experiment in a line: EMSA; EMSA: 50 nM RNA, 0.25-4.0 uM protein, protein diluted in 10 mM HEPES pH 7.9, 150 mM NaCl, 0.5 mM Mg(OAc)2, plus 1x loading dye (orange G, glycerol, EDTA); 30 min on ice; native 6% acrylamide/TBE PAGE. The conditions noted are these: protein: recombinant;recombinant; tags: 6H;; copies: 1;1; label: 5'-FAM.

The next data set has as its target T1, Ysh1;Yjr141w (Saccharomyces cerevisiae;Saccharomyces …, UniProt Q06224;P47172 1-779;1-347, |).
T1 sequence 1: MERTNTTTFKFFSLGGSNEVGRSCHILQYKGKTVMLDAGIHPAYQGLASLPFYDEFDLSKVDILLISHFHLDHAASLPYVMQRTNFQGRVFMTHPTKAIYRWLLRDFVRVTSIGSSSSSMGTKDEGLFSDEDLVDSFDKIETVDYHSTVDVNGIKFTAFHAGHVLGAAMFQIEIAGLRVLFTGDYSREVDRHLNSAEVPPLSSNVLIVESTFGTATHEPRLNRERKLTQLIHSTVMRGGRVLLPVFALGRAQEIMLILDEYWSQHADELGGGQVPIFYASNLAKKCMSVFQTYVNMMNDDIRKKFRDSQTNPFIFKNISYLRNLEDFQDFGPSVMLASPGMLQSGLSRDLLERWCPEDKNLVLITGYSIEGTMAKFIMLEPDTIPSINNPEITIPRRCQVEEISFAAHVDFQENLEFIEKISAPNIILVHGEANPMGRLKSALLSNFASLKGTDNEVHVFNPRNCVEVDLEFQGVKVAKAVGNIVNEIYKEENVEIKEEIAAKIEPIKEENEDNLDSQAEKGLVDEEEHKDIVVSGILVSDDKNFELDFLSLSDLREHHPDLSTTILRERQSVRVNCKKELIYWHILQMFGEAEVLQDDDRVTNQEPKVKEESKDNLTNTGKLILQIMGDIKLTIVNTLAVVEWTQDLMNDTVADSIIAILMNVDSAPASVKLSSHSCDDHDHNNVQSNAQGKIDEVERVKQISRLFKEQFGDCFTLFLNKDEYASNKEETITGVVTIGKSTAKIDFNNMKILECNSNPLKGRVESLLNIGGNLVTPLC
T1 sequence 2: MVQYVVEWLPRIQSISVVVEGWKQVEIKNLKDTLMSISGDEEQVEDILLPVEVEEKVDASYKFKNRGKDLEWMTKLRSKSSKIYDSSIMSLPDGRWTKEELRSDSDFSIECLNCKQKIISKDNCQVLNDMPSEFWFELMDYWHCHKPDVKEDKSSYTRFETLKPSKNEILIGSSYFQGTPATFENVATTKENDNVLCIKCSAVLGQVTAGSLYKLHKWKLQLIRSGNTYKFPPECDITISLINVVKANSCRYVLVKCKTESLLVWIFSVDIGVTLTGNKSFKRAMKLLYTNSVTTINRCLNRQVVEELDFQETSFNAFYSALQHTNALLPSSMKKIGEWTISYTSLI
The data set is described as above. Particulars: protein: recombinant;recombinant; tags: ;SII-3C (N-terminal) in Ysh1-Yjr141w; untagged in Ysh1-Mpe1-Yjr141w; copies: 1;1; label: 5'-FAM.

Chain of Pcf11;Clp1 (P39081 whole entry, chain 1 of 2): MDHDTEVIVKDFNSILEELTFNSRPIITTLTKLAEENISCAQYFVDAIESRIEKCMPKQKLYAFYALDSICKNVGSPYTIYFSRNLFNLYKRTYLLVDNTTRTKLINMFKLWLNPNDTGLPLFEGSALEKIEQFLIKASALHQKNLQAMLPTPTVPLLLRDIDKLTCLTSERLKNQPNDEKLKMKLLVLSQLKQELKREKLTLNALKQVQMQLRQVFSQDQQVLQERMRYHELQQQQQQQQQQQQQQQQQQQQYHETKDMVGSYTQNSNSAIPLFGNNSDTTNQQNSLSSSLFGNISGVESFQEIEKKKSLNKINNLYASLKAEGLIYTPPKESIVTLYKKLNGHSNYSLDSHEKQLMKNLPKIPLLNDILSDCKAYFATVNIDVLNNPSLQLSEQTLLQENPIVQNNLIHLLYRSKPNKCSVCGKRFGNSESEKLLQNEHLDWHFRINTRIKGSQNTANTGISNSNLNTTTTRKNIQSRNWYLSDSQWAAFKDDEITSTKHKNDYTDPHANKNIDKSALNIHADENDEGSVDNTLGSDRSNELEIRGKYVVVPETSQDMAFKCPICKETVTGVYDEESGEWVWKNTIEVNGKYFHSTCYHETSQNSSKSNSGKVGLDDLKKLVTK
Chain of Pcf11;Clp1 (Q08685 whole entry, chain 2 of 2): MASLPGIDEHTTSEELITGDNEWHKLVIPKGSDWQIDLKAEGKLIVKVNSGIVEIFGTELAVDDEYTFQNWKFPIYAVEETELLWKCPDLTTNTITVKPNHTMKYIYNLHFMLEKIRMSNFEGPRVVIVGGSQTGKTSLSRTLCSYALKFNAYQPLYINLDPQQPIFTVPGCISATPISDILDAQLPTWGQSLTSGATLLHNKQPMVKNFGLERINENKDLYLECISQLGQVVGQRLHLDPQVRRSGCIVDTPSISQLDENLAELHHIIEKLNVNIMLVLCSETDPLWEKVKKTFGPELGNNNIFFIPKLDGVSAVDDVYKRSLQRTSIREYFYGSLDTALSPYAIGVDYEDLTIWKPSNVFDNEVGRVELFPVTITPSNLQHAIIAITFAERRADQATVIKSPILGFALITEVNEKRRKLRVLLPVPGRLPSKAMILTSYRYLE

Take AAGAACGUUAUUUAUAUUUCAAAUUUUUCUUUUUU (ssRNA) [CYC1d EMSA probe]: the binding result was “binds” in data set [1], “binds” in data set [2], “binds” in the data set with Pcf11;Clp1 and “no binding” in the data set with Ysh1;Yjr141w.
Turning to CGUUAUUUAUAUUUCAAAUUUUUCU (ssRNA) [CYC1f EMSA probe], the binding result in data set [1] was “binds”; in data set [2], “binds”; with Pcf11;Clp1 it was “binds”; with Ysh1;Yjr141w, “no binding”.
For the molecule CCCCCCCCCCCCCCC (ssRNA) [C15], the binding result (in data set [1]; in data set [2]; with Pcf11;Clp1; with Ysh1;Yjr141w) was “no binding” in each case.
Turning to UUUUUUUUUUUUUUU (ssRNA) [U15], the binding result (in data set [1]; in data set [2]; with Pcf11;Clp1; in the data set with Ysh1;Yjr141w) was “no binding” each time.
For the molecule GGGGGGGGGGGGGGG (ssRNA) [G15], the binding result in data set [1] is “binds”; in data set [2], “binds”; in the data set with Pcf11;Clp1, “no binding”; with Ysh1;Yjr141w it was “no binding”.
Turning to AAAAAAAAAAAAAAA (ssRNA) [A15], the binding result in data set [1] is “binds”; in data set [2], “binds”; with Pcf11;Clp1 it was “no binding”; with Ysh1;Yjr141w, “no binding”.
